According to patent US20060122105A1, “Method of improing the growth performance of an animal” (priority 2001, published 2006):

Legend:
Type in all cases: in vivo
[1] = test system: Actinobacillus pleuropneumoniae (App); assay: App challenge of pigs, therapeutic IL-1ra at low and high doses or Excenel (Example 7); conditions: for feed consumed: FIG. 52
Method: Male pigs with a mean starting weight of 34.6 kg, were allocated to 4 treatment groups of 9 pigs each. Treatments were saline, IL-1ra at 2 μg per kg, IL-1ra at 10 μg per kg and Excenel, the current clinical treatment for App infection. Pigs were housed in pens of 3 pigs, with 3 replicates of each. Pigs were provided with pelleted feed and water ad libitum. The starting weights of each treatment group and each pen were equal prior to the start of the trial.
Pigs were anaesthetised and infected intratracheally with 7.5×10^5 pfu on day 0. Recombinant IL-1ra and saline were administered as 2ml doses, given subcutaneously behind the ear. Excenel was administered to pigs according to the manufacturer's instructions. Pigs were treated with IL-1ra, saline or Excenel at 24 h, 48 h and one week after challenge with App.
Blood was sampled from pigs by venipuncture at 0 h, 24 h, 48 h, 1 week and 2 weeks after infection. Blood was assayed for immunological parameters as previously described. Pigs were weighed the day prior to challenge, and days 6 and 13 after challenge.

haemorrhagic E. coli = assay: Haemorrhagic E. coli challenge of weaner pigs, prophylactic treatment (Example 3); conditions: for reduction of E. coli culture score at post-mortem compared to saline: FIG. 19
Method: Male weaner pigs, with a mean weight of 5.4 kg were allocated to groups of 8, with the mean weight being equalised between groups. Pigs were housed in group pens containing a replicate from each treatment group. Pigs were provided with pelleted feed and water ad libitum.
Pigs were treated with recombinant saline, IL-1ra or the antibiotic, Apralan, and challenged with E. coli according to the schedule outlined in Table 3. Saline, or 200 μg of IL-1ra were delivered intramuscularly in 1 ml doses. Apralan was delivered orally according to manufacturer's instructions at a dose of 12 mg/kg. E. coli challenges were delivered orally in an 8 ml dose containing 10^8 cfu/ml. Blood was sampled from pigs by venipuncture at −2 days, day 0, and +6 days from initial challenge with E. coli as outlined in Table 3. Blood was assayed for immunological parameters including white blood cell number, differential cell counts, lymphocyte subset enumeration, IgG levels and cytokine production. Pigs were weighed at day −2 and at the end of the trial on day 6.
Faecal samples were taken from each pig daily for 5 days from day 2 to day 6 after challenge; these samples were cultured on sheep blood agar to quantify E. coli load. Growth on sheep blood agar was scored from 0 to 5 (where 0 was no growth, 1 signified growth in the primary inoculum, 2 signified growth in the first streak, 3 signified growth in the 2nd streak, 4 signified growth in the 3rd streak, and 5 signified growth of E. coli in the final streak). The condition of faeces was noted as normal, wet or diarrhoea, as an indication of clinical signs.
At the conclusion of the experiment on day 7, pigs were euthanased and swabs were taken from different areas in the gastro-intestinal tract, including the small intestine (25%, 50% and 75% along the length of the small intestine), the caecum and colon, and from the faeces in situ. These post-mortem swabs were cultured on sheep blood agar to quantify E. coli load as described above.

[2] = test system: Actinobacillus pleuropneumoniae (App); assay: App challenge of pigs, prophylactic recombinant IL-1ra, plasmid IL-1ra or flunix (Example 5); set-up: improvements in weight gain over saline controls / reduction in weight gain compared to saline controls / reduction in clinical symptoms compared to saline / reduction of pleurisy compared to saline treated controls / reduction in affected lung mass compared to saline treated controls: concentration or dose not given beside the values
Method: Male pigs, with a mean starting weight of 52 kg, were allocated to 5 treatment groups as outlined in Table 6. Pigs were housed in group pens, with each pen containing a replicate from each of the treatment groups. The starting weights of each treatment group and each pen were equal prior to the start of the trial. Pigs were provided with pelleted feed and water ad libitum.
Recombinant IL-1ra and saline-were administered as 1 ml doses, given subcutaneously behind the ear. Plasmids were administered in 1 ml doses, given intramuscularly in the hind-leg. Flunix was administered as a 2 ml dose according to the manufacturer's instructions, and delivered intramuscularly in the neck. The timetable of administration is outlined in Table 6 below.
Prior to challenge, pigs were treated with recombinant cytokines, flunix or plasmids as described Table 7. Pigs were anaesthetised and infected intratracheally with 7.5×10^5 pfu App on day 0.
Blood was sampled from pigs by venipuncture at 0, 24 h and 14 days post-challenge. Blood was assayed for immunological parameters as previously described. Pigs were weighed weekly from delivery of plasmids and for 2 weeks after challenge.
At the conclusion of the trial, pigs were euthanased and the lungs removed for post-mortem examination. Lungs were scored for pleurisy from 0-5 (FIGS. 39 and 40) and the degree of pleuropneumonia was determined by weighing affected lung and expressed as a percentage of total lung weight (FIGS. 41 and 42). Pigs treated with flunix and IL-1ra had less pleurisy than the saline controls (FIG. 39).

B1: IL-1ra: Recombinant porcine IL-1ra expressed in E. coli and purified using a polyhis tag system (protein, UniProt Q29056 26-177, looked up)
Interleukin-1 receptor …: HPLGKRPCRMQAFRIWDVNQKTFYLRNNQLVAGYLQGPNTKLEEKIDVVPVEPHFVFLGIHGGKLCLSCVKSGDEMKLQLDAVNITDLRKNSEQDKRFTFIRSDSGPTTSFESAACPGWFLCTALEADQPVGLTNTPKAAVKVTKFYFQQDQ
modifications: polyhistidine tag
notes: Recombinant porcine IL-1ra expressed in E. coli and purified using a polyhis tag system
- feed consumed ([1]; IL-1ra at high dose (10 μg per kg)): 1.8 kg of feed per day
- weight gained in the second week of challenge ([1]; IL-1ra at low dose (2 μg per kg), Excenel per manufacturer's instructions, FIG. 51): 5.7 kg
- feed consumed ([1]; IL-1ra at low dose (2 μg per kg), Excenel per manufacturer's instructions): 1.7 kg of feed per day
- production of IL-8 in the caudal-mediastinal lymph nodes ([1]; low dose IL-1ra, Excenel, compared to saline treated controls): reduced the production of IL-8
- feed conversion ratio (FCR, feed:gain) ([1]; low dose IL-1ra, FIG. 53): 1.6
- proliferative responses of lymphocytes in the presence of killed App ([1]; low dose IL-1ra, FIG. 54): tended to have improved proliferative responses of lymphocytes
- production of the pro-inflammatory cytokine IL-8 in lung tissue (mRNA at post-mortem) ([1]; low doses, compared to other treatments, FIG. 55): reduced the production
- decrease in faecal shedding, faecal scores tallied over the entire challenge period, compared to saline treated controls (haemorrhagic E. coli; 5 days after E. coli challenge, FIG. 15): 37%
- recorded cases of wet faeces and diarrhoea (clinical signs) (haemorrhagic E. coli; 5 days after E. coli challenge, FIG. 16): fewer recorded cases of wet faeces and diarrhoea
- group mean total E. coli culture score, all gut areas at post-mortem (haemorrhagic E. coli; FIG. 20): less than 10 out of a possible 30
- reduction of E. coli culture score at post-mortem compared to saline (haemorrhagic E. coli; anterior part of the small intestine): 71%
- reduction of E. coli culture score at post-mortem compared to saline (haemorrhagic E. coli; caecum): 39%
- reduction of E. coli culture score at post-mortem compared to saline (haemorrhagic E. coli; colon): 44%
- reduction in clinical signs compared to saline controls (haemorrhagic E. coli; faecal condition, FIG. 17): 64%
- days on which bacterial shedding was significantly less than saline treated controls (haemorrhagic E. coli; faecal cultures): 3/5
- reduction of E. coli culture score at post-mortem compared to saline (haemorrhagic E. coli; faeces in situ): 23%
- reduction of E. coli culture score at post-mortem compared to saline (haemorrhagic E. coli; mid small intestine): 51%
- reduction in E. coli in the hindgut area (caecum and colon) compared to saline controls (haemorrhagic E. coli; post-mortem, FIG. 23): 42%
- reduction of bacterial load in the small intestine (foregut) compared with saline controls (haemorrhagic E. coli; post-mortem, FIG. 23): 55%
- reduction of E. coli culture score at post-mortem compared to saline (haemorrhagic E. coli; posterior small intestine): 47%
- reduction in the amount of E. coli in the gastro-intestinal tract compared to saline controls (haemorrhagic E. coli; total culture scores at post-mortem, FIG. 21): 45%
- period of reduced bacterial shedding in faeces after challenge (haemorrhagic E. coli; vs saline, FIG. 14): day 2 through to day 4
- Change compared to saline treated controls: Change in clinical signs (haemorrhagic E. coli; ↓ (decrease)): 63.6%
- Change compared to saline treated controls: Change on faecal bacterial load (haemorrhagic E. coli; ↓ (decrease)): 36.5%
- Change compared to saline treated controls: E. coli at post-mortem (haemorrhagic E. coli; ↓ (decrease)): 44.6%
- Change compared to saline treated controls: E. coli in foregut (haemorrhagic E. coli; ↓ (decrease)): 55.4%
- Change compared to saline treated controls: E. coli in hindgut (haemorrhagic E. coli; ↓ (decrease)): 41.7%
- Change compared to saline treated controls: Presence of bacterial shedding in faeces (haemorrhagic E. coli; ↓ (decrease)): 3 days
- improvements in weight gain over saline controls ([2]; 14d App challenge, FIG. 33): 53.8%
- daily rate of gain ([2]; 14d challenge with App, FIG. 32): 667 g per day
- reduction in clinical symptoms compared to saline ([2]; FIG. 38): 72%
- heavier at the termination of the experiment than saline treated peers ([2]; after 2 weeks of challenge): 4 kg
- improvement in growth vs saline ([2]; after 2 weeks of challenge): 69%
- production of IL-6 (mRNA in peripheral blood) ([2]; after App challenge, compared with saline treated controls, FIG. 36): reduce the production
- growth during the week of challenge ([2]; first week after App challenge, FIG. 30): positive growth
- clinical signs of App disease (mean clinical scores over 30 visits) ([2]; first week of challenge, vs saline-treated controls, p<0.05, FIG. 37): significantly reduced clinical signs of disease
- reduction in affected lung mass compared to saline treated controls ([2]; percentage of lung affected by App lesions, FIG. 42): 73.9%
- reduction of pleurisy compared to saline treated controls ([2]; pleurisy score 0-5 at necropsy, FIG. 40): 22%
